Data reported in US20090324573A1, “Pharmaceutical Composition Comprising P43 Protein for the Treatment of Gastric Adenocarcinoma” (priority 2006, published 2009).

Experiments:
Type in all cases: in vivo, BALB/cA bare mouse
Parameters in all cases: TV d 0 / TV d 21: unit not given here
Conditions in all cases: for RTV: RTV=Vt/V0; for T/C (%): TRTV/CRTV×100; for Weight (g) Final: final body weight; for Weight (g) First: first (baseline) body weight; for TV d 0: d 0, day of first administration
[1] = tested on: human gastric adenocarcinoma SGC-7901; experiment: Transplanted tumor of human gastric adenocarcinoma SGC-7901 in bare mouse
Text: (§1) Animal Resource, Line and Strain: BALB/cA bare mouse, provided by Experimental Animal Center, Chinese Academy of Sciences, Shanghai, China.
Bare mouse transplanted with human gastric adenocarcinoma […] was established by subcutaneously inoculating human gastric adenocarcinoma SGC-7901 cell strain into bare mouse, with a inoculation concentration of 1-3×10^6. After establishing the transplanted tumor, it was passaged in bare mouse for three generations prior to use.
(§2) The eugonic tumor tissue was cut into about 1.5 mm^3. It was inoculated into hypodermis in right armpit of bare mouse under aseptic condition. The diameter of the transplanted tumor of the bare mouse was measured by vernier caliper. After the tumor grew to 100-300 mm^3, the mice were grouped randomly. The effect of reagents used for inhibiting tumor was observed dynamically through measuring the diameter of tumor. The diameter of tumor was measured 3 times per week, while measuring the weight of mice. With respect to the mice in an administration group, the mice were administrated by intravenous injection 6 times per week: with respect to the mice in a positive control group, the mice were administrated by intravenous injection 2 times per week; with respect to the mice in a negative control group, the mice were administrated by same amount of physiological saline at the same time.
(§3) The tumor volume (TV) was calculated as follows:
(§4) in which a and b represent length and width, respectively. The relative tumor volume (RTV) was calculated based on the measured results: RTV=Vt/V0, in which V0 represents the tumor volume measured at the first administration (d0), and Vt represents the tumor volume measured at each measurement. The factor for estimating the effect against tumor is the relative tumor proliferation T/C (%) as follows:
(§5) TRTV: RTV for treating group; CRTV: RTV for negative control group.
100 mg of p43 protein, obtained from Sine Laboratory in Shanghai, China, was dissolved in physiological saline to form a solution of 1 mg/ml.
(§6) The solution was administrated to bare mouse by intravenous injection in 2.5 mg p43 protein/kg weight, 5 mg p43 protein/kg weight, and 10 mg p43 protein/kg weight.

[2] = tested on: human colon carcinoma HCT-116; experiment: Transplanted tumor of human colon carcinoma HCT-116 in bare mouse
Text: as §1
(§7) Number of animal in each group: 10 mice for negative control group and 5 mice for treating group
(§8) Transplanted tumor of human colon carcinoma HCT-116 in bare mouse was established by inoculating human colon carcinoma HCT-116 cell strain into hypoderm of bare mouse, with a inoculation concentration of 1-3×10^6. After establishing the transplanted tumor, it was passaged in bare mouse for three generations prior to use.
as §2, with “through the method of” for “through”, “week,” for “week:”
as §3
as §4, with “depending” for “based”, “growth” for “proliferation”
as §5
100 mg of p43 protein, available from Sine Laboratory in Shanghai, China, was dissolved in physiological saline to form a solution of 1 mg/ml.
as §6

[3] = tested on: human nasopharyngeal carcinoma CNE-1; experiment: Transplanted tumor of human nasopharyngeal carcinoma CNE-1 in bare mouse
Text: as §1, §7
as §8, with “nasopharyngeal” for “colon”, “CNE-1” for “HCT-116”
as §2, with “fro” for “for”, “through the method of” for “through”, “week;” for “week:”
as §3
as §4, with “depending” for “based”, “growth” for “proliferation”
as §5
100 mg of p43 protein, available from Sine Laboratory in Shanghai, China, was dissolved in physiological saline to form a solution of 1 mg/ml. […]

[4] = 2.5 mg/kg intravenous injection 6 times per week
[5] = 2.5 mg/kg intravenous injection
[6] = 5 mg/kg intravenous injection 6 times per week
[7] = 10 mg/kg intravenous injection 6 times per week

B1: P43: accessory factor of tRNA synthetase of mammals; single-chain protein of 312 amino acids; obtained from Sine Laboratory, Shanghai (protein, UniProt Q12904 2-312, looked up)
Aminoacyl tRNA synthase …: ANNDAVLKRLEQKGAEADQIIEYLKQQVSLLKEKAILQATLREEKKLRVENAKLKKEIEELKQELIQAEIQNGVKQIPFPSGTPLHANSMVSENVIQSTAVTTVSSGTKEQIKGGTGDEKKAKEKIEKKGEKKEKKQQSIAGSADSKPIDVSRLDLRIGCIITARKHPDADSLYVEEVDVGEIAPRTVVSGLVNHVPLEQMQNRMVILLCNLKPAKMRGVLSQAMVMCASSPEKIEILAPPNGSVPGDRITFDAFPGEPDKELNPKKKIWEQIQPDLHTNDECVATYKGVPFEVKGKGVCRAQTMSNSGIK
RTV [1, 4]: 17.14 ± 7.25
T/C (%) [1, 4]: 81.7%
TV d 21 [1, 4]: 2400 ± 360
Weight (g) Final [1, 4]: 26.7 ± 1.7 g
Weight (g) First [1, 4]: 20.3 ± 0.9 g
TV d 0 [1, 5]: 140 ± 73
RTV [1, 6]: 11.37 ± 6.3
T/C (%) [1, 6]: 54.2%
TV d 21 [1, 6]: 1648 ± 102
Weight (g) Final [1, 6]: 25.1 ± 1.9 g
Weight (g) First [1, 6]: 20.5 ± 0.7 g
TV d 0 ([1]; 5 mg/kg intravenous injection): 146 ± 72
RTV [1, 7]: 12.99 ± 5.14
T/C (%) [1, 7]: 61.9%
TV d 21 [1, 7]: 1715 ± 168
Weight (g) Final [1, 7]: 25.4 ± 2.8 g
Weight (g) First [1, 7]: 20.7 ± 0.6 g
TV d 0 ([1]; 10 mg/kg intravenous injection): 132 ± 34
side effect ([1]; SGC-7901 bearing bare mouse, 2.5, 5 and 10 mg/kg intravenous injection): without any obvious side effect
inhibition on growth of transplanted tumor ([1]; SGC-7901 in bare mouse, 2.5, 5 and 10 mg/kg intravenous injection): significant inhibition
RTV [2, 4]: 5.01 ± 0.92
T/C (%) [2, 4]: 84.5%
TV d 21 [2, 4]: 822 ± 145
Weight (g) Final [2, 4]: 24.1 ± 1.5 g
Weight (g) First [2, 4]: 20.7 g
TV d 0 [2, 5]: 164 ± 48
RTV [2, 6]: 4.51 ± 0.75
T/C (%) [2, 6]: 76.0%
TV d 21 [2, 6]: 703 ± 189
Weight (g) Final [2, 6]: 23.9 ± 2.2 g
Weight (g) First [2, 6]: 21.3 g
TV d 0 ([2]; 5 mg/kg intravenous injection): 156 ± 39
RTV [2, 7]: 4.73 ± 1.01
T/C (%) [2, 7]: 79.7%
T/C (%) ([2]; 10 mg/kg intravenous injection 6 times per week, listed as p43): 79.79%
TV d 21 [2, 7]: 761 ± 211
Weight (g) Final [2, 7]: 23.5 ± 2.1 g
Weight (g) First [2, 7]: 20.9 g
TV d 0 ([2]; 10 mg/kg intravenous injection): 161 ± 52
side effect ([2]; HCT-116 bearing bare mouse, 2.5, 5 and 10 mg/kg intravenous injection): without any obvious side effect
inhibition on growth of transplanted tumor ([2]; HCT-116 in bare mouse, 2.5, 5 and 10 mg/kg intravenous injection): non-significant inhibition
RTV [3, 4]: 13.43 ± 5.64
T/C (%) [3, 4]: 88.9%
TV d 21 [3, 4]: 1921 ± 201
Weight (g) Final [3, 4]: 24.6 ± 2.4 g
Weight (g) First [3, 4]: 20.5 ± 1.3 g
TV d 0 [3, 5]: 143 ± 70
RTV [3, 6]: 12.75 ± 5.12
T/C (%) [3, 6]: 84.4%
TV d 21 [3, 6]: 1708 ± 154
Weight (g) Final [3, 6]: 23.1 ± 1.8 g
Weight (g) First [3, 6]: 19.6 ± 0.8 g
TV d 0 ([3]; 5 mg/kg intravenous injection): 134 ± 48
RTV [3, 7]: 12.63 ± 4.88
T/C (%) [3, 7]: 83.6%
TV d 21 [3, 7]: 1856 ± 173
Weight (g) Final [3, 7]: 22.9 ± 2.3 g
Weight (g) First [3, 7]: 19.8 ± 1.1 g
TV d 0 ([3]; 10 mg/kg intravenous injection): 147 ± 63
side effect ([3]; CNE-1 bearing bare mouse, 2.5, 5 and 10 mg/kg intravenous injection): without any obvious side effect
inhibition on growth of transplanted tumor ([3]; CNE-1 in bare mouse, 2.5, 5 and 10 mg/kg intravenous injection): non-significant inhibition
